Patent US20060058504A1, “Peptides capable of inducing attraction to the axonal growth and their use for treating neurodegenerative diseases” (Centre National de la Recherche Scientific (CNRS), priority 2002, published 2006)
Residue numbers refer to the chain shown, from its start. In names and notes the source's numbering stands. Entries after “also recorded” stand apart in the source; their conditions may differ. Where two headings read alike, the source gives them in different places.

B1: A426D mutant L1Fc chimera (Fc fusion, UniProt P32004 20-1120, looked up)
chain: IQIPEEYEGHHVMEPPVITEQSPRRLVVFPTDDISLKCEASGKPEVQFRWTRDGVHFKPKEELGVTVYQSPHSGSFTITGNNSNFAQRFQGIYRCFASNKLGTAMSHEIRLMAEGAPKWPKETVKPVEVEEGESVVLPCNPPPSAEPLRIYWMNSKILHIKQDERVTMGQNGNLYFANVLTSDNHSDYICHAHFPGTRTIIQKEPIDLRVKATNSMIDRKPRLLFPTNSSSHLVALQGQPLVLECIAEGFPTPTIKWLRPSGPMPADRVTYQNHNKTLQLLKVGEEDDGEYRCLAENSLGSARHAYYVTVEAAPYWLHKPQSHLYGPGETARLDCQVQGRPQPEVTWRINGIPVEELAKDQKYRIQRGALILSNVQPSDTMVTQCEARNRHGLLLANAYIYVVQLPDKILTADNQTYMAVQGSTAYLLCKAFGAPVPSVQWLDEDGTTVLQDERFFPYANGTLGIRDLQANDTGRYFCLAANDQNNVTIMANLKVKDATQITQGPRSTIEKKGSRVTFTCQASFDPSLQPSITWRGDGRDLQELGDSDKYFIEDGRLVIHSLDYSDQGNYSCVASTELDVVESRAQLLVVGSPGPVPRLVLSDLHLLTQSQVRVSWSPAEDHNAPIEKYDIEFEDKEMAPEKWYSLGKVPGNQTSTTLKLSPYVHYTFRVTAINKYGPGEPSPVSETVVTPEAAPEKNPVDVKGEGNETTNMVITWKPLRWMDWNAPQVQYRVQWRPQGTRGPWQEQIVSDPFLVVSNTSTFVPYEIKVQAVNSQGKGPEPQVTIGYSGEDYPQAIPELEGIEILNSSAVLVKWRPVDLAQVKGHLRGYNVTYWREGSQRKHSKRHIHKDHVVVPANTTSVILSGLRPYSSYHLEVQAFNGRGSGPASEFTFSTPEGVPGHPEALHLECQSNTSLLLRWQPPLSHNGVLTGYVLSYHPLDEGGKGQLSFNLRDPELRTHNLTDLSPHLRYRFQLQATTKEGPGEAIVREGGTMALSGISDFGNISATAGENYSVVSWVPKEGQCNFRFHILFKALGEEKGGASLSPQYVSYNQSSYTQWDLQPDTDYEIHLFKERMFRHQMAVKTNGTGRVRLPPAGFATE
notes: not shown: immunoglobulin Fc, human
B2: G121S: L1Fc chimera with missense mutation G121S in Ig domain 1 (protein)
chain: B1 chain with G102S, D407A
modifications: left off: a dimerising Fc or GST
B3: L120V: L1Fc chimera with missense mutation L120V in Ig domain 1 (protein)
chain: B1 chain with L101V, D407A
modifications: left off: a dimerising Fc or GST
B4: H210Q mutant L1Fc chimera (Fc fusion, UniProt P32004 20-1120, looked up)
chain: B1 chain with H191Q, D407A
notes: as for B1

Key:
[1] = biological target: T1, wild-type L1Fc chimeric protein (human, UniProt P32004 20-1120); test: two-color FACS bead aggregation, mutant L1Fc beads with wild-type L1Fc beads, mixed aggregates at 30 min
T1 construct: Produced in COS-7 cells, purified on protein A-Sepharose; in the two-color assay it was held on anti-human IgG coated beads; also called soluble L1; wt; not shown: immunoglobulin Fc, human (cross-linked with anti-human Fc antibodies)

[2] = test system: cortical axons repelled by Sema3A secreted from the ventral spinal cord; test: Co-culture of cortical slices and ventral spinal cord explants (axon guidance response to Sema3A); type: cell-based, mice; conditions: for switching of Sema3A repulsion to attraction by L1Fc chimera: chimera 3 μg/ml in culture medium
Method: Blocks of cortex were dissected from P0 (postnatal day 0) to P2 mice and cut into 250 μm thick slices with a McIlwain tissue chopper. The ventral part of the cervical spinal cord was dissected and cut into 250 μm thick slices. Co-culture of cortical slices and ventral spinal cord explants were performed in a three-dimensional plasma clot, as described previously (Castellani et al., 2000). Cortical slices were oriented in the plasma clot as indicated in FIG. 1B to give to axons equivalent chances to be deflected away or towards the spinal cord explant. Purified wild-type or mutant L1Fc chimeras were added to the culture medium (3 μg/ml). Inhibitors of the guanylyl cyclase (ODQ, 10^−5 M, Sigma) and NOS (7NI, […], Sigma) were added to the culture medium, either alone or with wild-type L1Fc (3 μg/ml). After one or two days in vitro (DIV), the cultures were fixed with 4% paraformaldehyde (PFA) and analyzed by phase contrast microscopy (Axiovert 35-M, Zeiss). A qualitative guidance index was attributed to the co-cultures, to assess the degree of repulsive (negative values) or attractive (positive values) effects (Castellani et al., 2000). The index ranged from −2 (when most fibers grew away from the spinal cord explant) to +2 (when most fibers grew towards the explant), with intermediate situations (index of −1 and +1 for moderate guidance effects). An index of zero was attributed to the cultures showing no preferential growth. Quantitative analysis of axon length and number of axons growing from cortical slices was performed as described previously (Castellani et al., 2000). A proximal and a distal region, each of them covering a 600 μm-piece of cortical tissue were determined for each culture. All fibers extending from these two regions were counted and the length of the three longest fibers was measured, using computer analysis software (Visiolab 2000, Biocom). Immunofluorescence labeling of axons was performed using the mouse anti-phosphorylated neurofilament antibody SMI31 (Stemberger and Meyer Inc.), and Texas red-conjugated secondary anti-mouse antibody (see result obtained for number of axons and axonal length in the following tables 1 and 2).
It has been previously developed an assay system using explants of ventral spinal cord co-cultured with cortical axons in order to determine the factors involved in axonal repulsion and attraction (Castellani et al., 2000). Using this system we have shown that Sema3A secreted from the ventral spinal cord repels cortical axons. In the presence of soluble wild-type L1Fc chimeric protein however, repulsion is switched to attraction (Castellani et al., […]). In the present study, we aimed to identify the L1 interactions underlying the switching process. As Ig domains have been implicated in binding of Ig CAMs to many of their ligands (Brümmendorf and Rathjen, 1996) we hypothesized that they would also be required for L1 Fc-mediated switching. […] L1 Fc chimeras containing pathological missense mutations affecting specific Ig domains (De Angelis et al., 1999 and FIGS. 1A, 1B) were assessed for their ability to reverse Sema3A repulsion to attraction.

[3] = biological target: T2, full length human L1 (Homo sapiens, UniProt P32004); test: Binding of L1Fc chimeras to COS cells expressing wild-type L1 (immunofluorescence)
T2 construct: transiently transfected with expression vectors encoding full length human L1; expressed in transfected cells; host or cells: COS7
T2 sequence (P32004 20-1257): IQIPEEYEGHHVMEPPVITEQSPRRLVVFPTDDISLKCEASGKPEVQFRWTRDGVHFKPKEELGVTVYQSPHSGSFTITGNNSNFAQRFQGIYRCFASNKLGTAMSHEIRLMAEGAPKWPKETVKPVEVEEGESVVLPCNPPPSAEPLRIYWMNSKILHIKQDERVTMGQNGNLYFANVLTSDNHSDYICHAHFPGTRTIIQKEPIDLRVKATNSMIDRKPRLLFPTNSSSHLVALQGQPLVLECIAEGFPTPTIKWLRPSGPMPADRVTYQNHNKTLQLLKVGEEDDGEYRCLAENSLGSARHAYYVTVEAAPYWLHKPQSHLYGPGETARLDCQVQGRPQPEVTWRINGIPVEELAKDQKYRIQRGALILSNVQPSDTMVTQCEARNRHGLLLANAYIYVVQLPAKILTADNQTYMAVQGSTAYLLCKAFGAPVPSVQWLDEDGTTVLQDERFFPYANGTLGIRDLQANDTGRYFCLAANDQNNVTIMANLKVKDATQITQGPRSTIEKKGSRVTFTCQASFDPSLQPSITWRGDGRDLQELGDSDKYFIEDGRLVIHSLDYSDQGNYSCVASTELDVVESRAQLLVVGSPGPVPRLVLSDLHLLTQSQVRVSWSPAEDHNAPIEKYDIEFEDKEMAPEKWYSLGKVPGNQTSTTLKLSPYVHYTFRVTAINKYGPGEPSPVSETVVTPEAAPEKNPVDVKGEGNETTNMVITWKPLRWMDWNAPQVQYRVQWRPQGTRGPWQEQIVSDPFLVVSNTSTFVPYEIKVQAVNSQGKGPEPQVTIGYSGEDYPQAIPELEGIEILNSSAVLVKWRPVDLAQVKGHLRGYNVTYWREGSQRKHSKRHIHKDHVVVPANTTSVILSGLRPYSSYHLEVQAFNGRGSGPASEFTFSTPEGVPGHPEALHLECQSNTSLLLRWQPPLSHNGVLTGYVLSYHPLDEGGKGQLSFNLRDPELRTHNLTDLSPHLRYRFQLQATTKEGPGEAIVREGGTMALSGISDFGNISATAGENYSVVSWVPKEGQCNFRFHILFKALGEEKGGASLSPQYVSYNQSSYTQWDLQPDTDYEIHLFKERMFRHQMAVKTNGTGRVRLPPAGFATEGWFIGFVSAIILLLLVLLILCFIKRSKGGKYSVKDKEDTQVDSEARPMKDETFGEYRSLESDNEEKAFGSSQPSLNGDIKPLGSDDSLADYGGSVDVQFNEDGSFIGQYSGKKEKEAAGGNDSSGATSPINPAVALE
Method: (§1) The mutant L1Fc chimeras were produced and purified as described previously (De Angelis et al., 1999). Briefly, COS-7 cells were transiently transfected with 10 μg DNA per 150 mm culture dish, the soluble Fc chimeric protein was allowed to accumulate in the media for 6 days and was recovered and purified by protein A-Sepharose affinity chromatography. In the binding experiments, L1Fcs were cross-linked to anti-human Fc antibodies (50 μg/ml, Jackson Immunoresearch) for 1 hr at 37° C. Binding detection to NP-1 requested concentrations of L1Fcs 10 folds higher than L1. Antibody conjugated L1-Fc protein was then incubated with monolayers of COS7 cells transiently transfected with expression vectors encoding full length human L1 or myc-tagged NP-1 where the cytoplasmic domain is deleted (gift of J. Raper, 2000 and Renzi et al., 1999). Following incubation, the cells were fixed with 4% PFA, and processed for double-immunofluorescence detection. NP-1 was detected using a mouse anti-c myc antibody (clone 9E10, Sigma) and L1 using a rat monoclonal anti-L1 antibody. Secondary antibody anti-c-myc (Texas-red conjugated anti-mouse antibodies) was used to detect NP-1, anti-L1 (Texas red conjugated anti-rat antibodies) to detect L1, and anti-Fc (FITC conjugated anti-rabbit antibodies) to detect bound L1Fc chimeras. After secondary antibody incubation, the cells were washed with PBS and mounted in Mowiol (Calbiochem).
Thus, Ig CAMs F3 and TAG-1 (the rodent homologue of axonin-1) ate unlikely to be axonal receptors for L1Fc in the reversion process. […] In the present study however, mutated L1Fc proteins were required to interact with wild-type L1 expressed on growth cones. To formally exclude a role for homophilic binding of L1 in the initiation of the reversion process, it was therefore necessary to examine whether homophilic binding of the mutated L1Fc chimeras to wild-type L1 was also disrupted. Mutated L1Fcs were therefore incubated with COS7 cells transfected with full-length wild-type L1 cDNA and binding was assessed by immunofluorescence. In parallel, homophilic binding of mutant/mutant and mutant/wild-type L1Fcs was compared in a two-color FACS aggregation assay, allowing a quantitative assessment to be made (see Methods). […] Similarly, in the two color FACS assay homophilic binding was restored to 74.4% and 90.5% of wild-type levels for A426D and H210Q respectively (FIG. 2B). […] This mutation however still promoted the L1 Fc induced switching of Sema3A repulsion to attraction in the co-culture assay. Thus, the ability of L1Fc to switch Sema3A repulsion is not dependent on homophilic binding. Consequently, the trans interaction of L1Fc with L1 in the receptor complex is not required for the change in growth cone responsiveness to Sema3A.

[4] = test system: L1; conditions: mutant bound to itself; cited from earlier work
[5] = test system: wild-type L1; test: Two-color FACS aggregation assay (homophilic binding); conditions: mixed aggregates at the 30-minute time-point; mutant/wild-type
wild-type L1, sequence (P32004 with tags, fused parts or gaps limits assumed): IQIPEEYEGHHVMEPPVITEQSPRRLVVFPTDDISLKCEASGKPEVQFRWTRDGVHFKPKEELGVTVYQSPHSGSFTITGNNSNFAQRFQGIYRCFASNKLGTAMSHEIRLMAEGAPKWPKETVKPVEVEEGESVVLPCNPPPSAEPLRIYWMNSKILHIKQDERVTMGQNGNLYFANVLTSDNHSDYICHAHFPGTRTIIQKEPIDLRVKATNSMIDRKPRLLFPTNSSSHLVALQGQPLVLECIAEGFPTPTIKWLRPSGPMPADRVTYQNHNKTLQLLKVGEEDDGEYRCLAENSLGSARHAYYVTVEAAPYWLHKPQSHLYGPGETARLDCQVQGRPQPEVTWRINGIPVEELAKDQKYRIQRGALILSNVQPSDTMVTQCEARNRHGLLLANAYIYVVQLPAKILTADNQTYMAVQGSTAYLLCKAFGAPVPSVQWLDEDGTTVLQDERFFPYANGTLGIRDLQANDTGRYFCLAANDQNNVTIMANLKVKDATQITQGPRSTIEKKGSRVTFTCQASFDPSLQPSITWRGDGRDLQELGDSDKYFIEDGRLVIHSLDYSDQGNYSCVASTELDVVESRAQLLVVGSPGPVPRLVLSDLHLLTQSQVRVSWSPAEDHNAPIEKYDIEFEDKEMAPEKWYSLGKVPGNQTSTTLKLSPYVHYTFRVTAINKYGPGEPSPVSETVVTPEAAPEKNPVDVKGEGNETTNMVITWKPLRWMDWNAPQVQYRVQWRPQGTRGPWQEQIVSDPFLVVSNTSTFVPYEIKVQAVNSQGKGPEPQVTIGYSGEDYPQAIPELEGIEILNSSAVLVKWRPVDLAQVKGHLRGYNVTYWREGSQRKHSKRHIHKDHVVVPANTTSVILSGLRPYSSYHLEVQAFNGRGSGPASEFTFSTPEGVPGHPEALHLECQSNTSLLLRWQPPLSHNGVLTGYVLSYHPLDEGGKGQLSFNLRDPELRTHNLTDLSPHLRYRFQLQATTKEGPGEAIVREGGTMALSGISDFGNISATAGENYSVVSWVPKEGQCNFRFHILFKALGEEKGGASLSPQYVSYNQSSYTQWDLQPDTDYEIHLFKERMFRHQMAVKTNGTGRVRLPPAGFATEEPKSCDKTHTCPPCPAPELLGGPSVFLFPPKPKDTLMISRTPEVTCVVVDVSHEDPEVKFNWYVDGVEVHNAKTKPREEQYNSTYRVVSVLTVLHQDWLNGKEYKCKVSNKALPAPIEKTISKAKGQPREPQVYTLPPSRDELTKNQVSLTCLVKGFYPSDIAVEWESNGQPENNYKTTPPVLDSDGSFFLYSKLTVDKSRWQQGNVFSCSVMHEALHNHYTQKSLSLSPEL
Method: A two-color aggregation assay was developed, modified from the homophilic binding assay described by De Angelis et al. (1999). For the two-color assay, red and green fluorescent microsphere beads (0.6 um, Duke Scientific Corps.) were coated with anti-human IgG antibody (Fc specific; Sigma, 1-2136). 2.5 μg of wild type (red beads) or mutant (green beads) L1Fc-proteins were conjugated to 10 μl of antibody-coated beads by incubating for 2 hrs at 37° C. Excess unbound protein was removed by washing with PBS/5% FCS. For each mutant, a 1:1 mixture of wild-type L1 and mutant L1 coated beads was prepared, dissaggregated to produce a single bead suspension and allowed to form mixed aggregates at 37° C. with samples removed in duplicate over a 30-minute time course. Samples were diluted 1:5000 into ice cold PBS and the proportion of 2 colour aggregates was assessed using a fluorescence activated cell sorter (Becton Dickenson FACSort). Ten thousand particles were counted per sample and categorised as red only (WT-L1: WT-L1), green only (Mutant L1: Mutant L1) or mixed aggregates. Every mutant protein was assayed at least 3 separate times and standardised to a wild-type control conducted in parallel.

[6] = test system: F3, axonin-1 and TAX-1; conditions: F3, axonin-1 (and TAX-1 where stated); cited from earlier work
[7] = test system: NP-1; test: Binding of L1Fc chimeras to NP-1 expressing COS7 cells (immunofluorescence)
Method: as §1
Next, we examined the ability of the mutant L1 Fc chimeras to bind NP-1. COS7 cells were transfected with a vector encoding the extracellular and transmembrane domains of NP-1 fused to a myc tag (ANP-1, Renzi et al., J. Neurosci., 15:7870-7880, 1999), and incubated with the mutant L1Fc chimeras. Binding was detected by immunofluorescence. […] Binding of L120V, G121S and A426D L1Fcs to NP-1 is illustrated in FIG. 3.

Row | Molecule | homophilic binding, percent of wild-type levels [1] | switching of Sema3A repulsion to attraction by L1Fc chimera [2] | binding to wild-type L1 expressed in COS cells [3] | effect of mutation on homophilic binding [4] | homophilic binding to wild-type L1, percent of wild-type levels [5] | effect of mutation on heterophilic binding [6] | binding to NP-1 expressing cells [7] | guidance index ([2]; qualitative index from −2 (repulsion) to +2 (attraction), L1Fc chimeras 3 μg/ml, ODQ 10^−5M) | binding to NP-1 expressing cells ([7]; listed as L120V-L1Fc)
1 | B1 | 74.4 % of wild-type levels |  |  |  |  |  |  |  | 
2 | B2 |  | able to reverse Sema3A repulsion to attraction; also recorded: efficiently induce switching of Sema3A repulsion to attraction; also recorded: switched Sema3A from repulsion to attraction to the same extent as wild type L1Fc | did not; also recorded: almost abolished homophilic binding to wild-type L1 | reduce homophilic binding | extremely low; also recorded: almost abolished homophilic binding to wild-type L1 | reduce | bound to NP-1 expressing cells |  | 
3 | B3 |  | unable to switch the repulsive activity of Sema3A to attraction; also recorded: abrogated the reversal of Sema3A repulsion to attraction; also recorded: failed to reverse Sema3A effect | bound to wild-type L1 | does not affect | 100% | does not affect | did not | −1.3 | did not bind NP-1
4 | B4 | 90.5 % of wild-type levels |  |  |  |  |  |  |  | 
